T1: GST-REF6C (C2H2 ZnF domain) (Arabidopsis thaliana, UniProt Q9STM3 1239-1360)
T1 sequence: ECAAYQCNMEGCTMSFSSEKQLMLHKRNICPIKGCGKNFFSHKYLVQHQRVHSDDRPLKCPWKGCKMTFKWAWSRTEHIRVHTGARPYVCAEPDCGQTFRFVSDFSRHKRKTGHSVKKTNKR

B1: NYE1 WT probe (dsDNA)
DNA 1: AAAGGAGTCTCTCTGTATTTAGTGGCGT
DNA 2: ACGCCACTAAATACAGAGAGACTCCTTT
B2: ORE1 WT probe (dsDNA)
DNA 1: TACTCGGATCCTCTGTTTTTACAAGACA
DNA 2: TGTCTTGTAAAAACAGAGGATCCGAGTA
B3: EIN2 WT probe (dsDNA)
DNA 1: AGGAACCATTCTCTGGATAAACCCTAGC
DNA 2: GCTAGGGTTTATCCAGAGAATGGTTCCT
B4: NAP WT probe (dsDNA)
DNA 1: TTTCTCCAAACTCTGTTTTCTCTGTAAA
DNA 2: TTTACAGAGAAAACAGAGTTTGGAGAAA
B5: NYE2 WT probe (dsDNA)
DNA 1: CAAAAAGGGTCTCTGTATTTAGTTATTA
DNA 2: TAATAACTAAATACAGAGACCCTTTTTG

How the values were obtained:
[1] = molecular target: T1, GST-REF6C (C2H2 ZnF domain); experiment: EMSA; competed by excess unlabeled probe; Light Shift EMSA kit binding buffer (composition, salt, pH not stated), poly(dI-dC), 4 ug protein in 20 ul, room temperature 30 min; 5% polyacrylamide gel with; details: protein: recombinant; tags: N-terminal GST; label: biotin; blunt
[2] = molecular target: T1, GST-REF6C (C2H2 ZnF domain); experiment: EMSA; Light Shift EMSA kit binding buffer (composition, salt, pH not stated), poly(dI-dC), 4 ug protein in 20 ul, room temperature 30 min; 5% polyacrylamide gel with; details: protein: recombinant; tags: N-terminal GST; label: biotin; blunt

Binder | binding result [1] | binding result [2]
B1 | binds | –
B2 | – | binds
B3 | – | binds
B4 | – | binds
B5 | – | binds

— article PMC6457497, “The H3K27me3 demethylase REF6 promotes leaf senescence through directly activating major senescence regulatory and functional genes in Arabidopsis”
